Patent publication US20220175781A1, “CD40L COMPOSITIONS AND METHODS FOR TUNABLE REGULATION” (Obsidian Therapeutics, Inc., priority 2019, published 2022)
Values joined by “and” are separate entries in the source; they are usually repeats but may differ in a detail not shown here. Equal entries are not always repeated.

What was measured:
T cells (CD4+ and CD8+) = assay: Co-expression of CD40L and CD19 CAR on transduced T cells; assay type: cell-based
Excerpt: The results for CD4+ and CD8+ cells and total cells are shown below.

Nalm6-luc = Nalm6-luc tumor model, Bioluminescence Intensity (BLI); assay type: in vivo, mice; details: CD40L only T cells, no CAR+ number
Protocol: (§1) Increased expression of CD40L on CD19 positive CART cells may increase the efficacy of CAR+ T cells in vivo. To test this, 8-week old mice were injected with Nalm6-luc (1 million per mouse). On day 6, Nalm6 tumor burden was measured and mice were grouped to ensure that all groups had similar tumor sizes. Body weight and Bioluminescence Intensity (BLI) were measured twice a week. Blood and plasma were also collected for cytokine analysis, CD40L and IL12.

Jurkat cells [1] = assay: In vivo CD40L regulation in Jurkat cells harvested from bone marrow of NSG mice; details: constitutive construct, Jurkat cells from bone marrow, day 16
Excerpt: Jurkat cells stably expressing OT-001661, OT-002034 were intravenously infused into 8-week old NSG mice (20 million cells per mouse). Starting by day 15, mice were orally dosed according to the study design shown in Table 42 and Jurkat cells were harvested on day 16 from the bone marrow and analyzed by FACS. In Tables 41 and 42, TMP refers to Trimethoprim and all dosing is relative to “0 hr” time point on day 16. The results are shown in Table 43 and Table 44 where “EV” refers to empty vector control.

hCD45+ cells = hCD45+ cells in blood by FACS 14 days after T-cell infusion; assay type: in vivo, mice; details: cell number not given
Protocol: as §1
Human cells were analyzed by FACS (hCD45+) from the blood 14 days after T-cell infusion, which equals 21 days after tumor implant. The results are shown in Table 22 where M indicates million.

CD40 = CD40 (UniProt P25942); assay: cell-based or functional assay
Sequence of CD40 (P25942 21-277 limits assumed): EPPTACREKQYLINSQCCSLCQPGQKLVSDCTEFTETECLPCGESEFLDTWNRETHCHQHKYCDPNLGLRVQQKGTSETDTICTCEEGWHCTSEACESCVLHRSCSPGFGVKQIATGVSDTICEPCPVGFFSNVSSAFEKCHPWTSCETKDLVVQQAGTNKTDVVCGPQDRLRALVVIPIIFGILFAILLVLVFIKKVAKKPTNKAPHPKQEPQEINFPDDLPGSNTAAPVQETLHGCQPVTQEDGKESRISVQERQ

[2] = tested on: T cells (CD4 and CD8 positive); assay: Bazedoxifene dose response, CD40L MFI in CD4 and CD8 positive T cells (day 4, freeze/thaw, restimulation); assay type: cell-based
Protocol: Dose response with Bazedoxifene in T cells were conducted for OT-001966, OT-001967, OT-001666. Expression of CD40L was measured at (a) day 4 after transduction, (b) after freezing and thawing the cells or (c) after freezing and thawing the cells followed by restimulation with CD3/CD28 beads. The CD40L MFI (median fluorescence intensity) within CD4 and CD8 positive subpopulations is shown in Table 34 and Table 35 respectively.

Jurkat cells [3] = assay: DHFR regulated CD40L expression, transduced Jurkat cells (flow cytometry); assay type: cell-based
Protocol: Jurkat cells were transduced with lentiviruses corresponding to OT-001662, OT-001962, OT-001961, OT-001963. 24 hours after transduction, cells were split and treated with DMSO or 50 μM TMP for another 24 hours until flow cytometry-based analysis. The results are shown in Table 37 where SR indicates stabilization ration.

B1: OT-001661: constitutively expressed full length CD40L construct (protein)
chain: MHMIETYNQTSPRSAATGLPISMKIFMYLLTVFLITQMIGSALFAVYLHRRLDKIEDERNLHEDFVFMKTIQRCNTGERSLSLLNCEEIKSQFEGFVKDIMLNKEETKKENSFEMQKGDQNPQIAAHVISEASSKTTSVLQWAEKGYYTMSNNLVTLENGKQLTVKRQGLYYIYAQVTFCSNREASSQAPFIASLCLKSPGRFERILLRAANTHSSAKPCGQQSIHLGGVFELQPGASVFVNVTDPSQVSHGTGFTSFGLLKL
- Percent of Cells co-expressing CD40L and CD19 CAR (T cells (CD4+ and CD8+); All Cells): 0%
- Percent of Cells co-expressing CD40L and CD19 CAR (T cells (CD4+ and CD8+); CD4+): 0%
- Percent of Cells co-expressing CD40L and CD19 CAR (T cells (CD4+ and CD8+); CD8+): 0%
- Average BLI values (Nalm6-luc; Day 6 (before T cell injection on day 7)): 2.04E+06
- Average BLI values (Nalm6-luc; Day 13): 2.69E+08
- Average BLI values (Nalm6-luc; Day 20): 2.52E+09
- Average BLI values (Nalm6-luc; Day 25): 5.99E+09
- Average BLI values (Nalm6-luc; Day 28): 1.04E+10
- CD40L MFI values (Jurkat cells [1]; Average): 586.5
- Percent CD40L positive cells (Jurkat cells [1]; Average): 58.9%
- CD40L MFI values (Jurkat cells [1]; individual mice): 507 and 572 and 660 and 607
- Percent CD40L positive cells (Jurkat cells [1]; individual mice): 52.5% and 57.5% and 64.2% and 61.4%
- Percentage hCD45+ cells, Average (hCD45+ cells): 0.002%
- Percentage hCD45+ cells, Individual values (hCD45+ cells): 0.00249% and 0.00331% and 0.00198% and 0%

B2: OT-001666 (Met; ER (305-549 of WT, L384M, N413D, M421G, G521R, Y537S); Histidine; CD40L; stop) (ligand)
chain: MSLALSLTADQMVSALLDAEPPILYSEYDPTRPFSEASMMGLLTNLADRELVHMINWAKRVPGFVDLTLHDQVHLLECAWMEILMIGLVWRSMEHPGKLLFAPNLLLDRDQGKCVEGGVEIFDMLLATSSRFRMMNLQGEEFVCLKSIILLNSGVYTFLSSTLKSLEEKDHIHRVLDKITDTLIHLMAKAGLTLQQQHQRLAQLLLILSHIRHMSNKRMEHLYSMKCKNVVPLSDLLLEMLDAHRLHMIETYNQTSPRSAATGLPISMKIFMYLLTVFLITQMIGSALFAVYLHRRLDKIEDERNLHEDFVFMKTIQRCNTGERSLSLLNCEEIKSQFEGFVKDIMLNKEETKKENSFEMQKGDQNPQIAAHVISEASSKTTSVLQWAEKGYYTMSNNLVTLENGKQLTVKRQGLYYIYAQVTFCSNREASSQAPFIASLCLKSPGRFERILLRAANTHSSAKPCGQQSIHLGGVFELQPGASVFVNVTDPSQVSHGTGFTSFGLLKL
- SEAP reporter of HEK-Blue CD40 cells co-cultured 24 hours with transduced Jurkat cells plus 1 µM Bazedoxifene, given as Soluble CD40L (pg/ml) against a recombinant soluble CD40L standard (CD40): 1820 pg/mL
- CD40L expression (MFI) ([2]; CD4+ cells, Day 4, Bazedoxifene 0.01 nM): 372
- CD40L expression (MFI) ([2]; CD4+ cells, Day 4, Bazedoxifene 0.1 nM): 420
- CD40L expression (MFI) ([2]; CD4+ cells, Day 4, Bazedoxifene 1 nM): 427
- CD40L expression (MFI) ([2]; CD4+ cells, Day 4, Bazedoxifene 10 nM): 476
- CD40L expression (MFI) ([2]; CD4+ cells, Day 4, Bazedoxifene 100 nM): 732
- CD40L expression (MFI) ([2]; CD4+ cells, Day 4, Bazedoxifene 1000 nM): 1397
- CD40L expression (MFI) ([2]; CD4+ cells, Day 4, Bazedoxifene 10000 nM): 1274
- CD40L expression (MFI) ([2]; CD4+ cells, Post Thaw, Bazedoxifene 0.01 nM): 134
- CD40L expression (MFI) ([2]; CD4+ cells, Post Thaw, Bazedoxifene 0.1 nM): 138
- CD40L expression (MFI) ([2]; CD4+ cells, Post Thaw, Bazedoxifene 1 nM): 145
- CD40L expression (MFI) ([2]; CD4+ cells, Post Thaw, Bazedoxifene 10 nM): 162
- CD40L expression (MFI) ([2]; CD4+ cells, Post Thaw, Bazedoxifene 100 nM): 208
- CD40L expression (MFI) ([2]; CD4+ cells, Post Thaw, Bazedoxifene 1000 nM): 241
- CD40L expression (MFI) ([2]; CD4+ cells, Post Thaw, Bazedoxifene 10000 nM): 537
- CD40L expression (MFI) ([2]; CD4+ cells, Restim, Bazedoxifene 0.01 nM): 592
- CD40L expression (MFI) ([2]; CD4+ cells, Restim, Bazedoxifene 0.1 nM): 658
- CD40L expression (MFI) ([2]; CD4+ cells, Restim, Bazedoxifene 1 nM): 682
- CD40L expression (MFI) ([2]; CD4+ cells, Restim, Bazedoxifene 10 nM): 658
- CD40L expression (MFI) ([2]; CD4+ cells, Restim, Bazedoxifene 100 nM): 953
- CD40L expression (MFI) ([2]; CD4+ cells, Restim, Bazedoxifene 1000 nM): 1688
- CD40L expression (MFI) ([2]; CD4+ cells, Restim, Bazedoxifene 10000 nM): 1577
- CD40L expression (MFI) ([2]; CD8+ cells, Day 4, Bazedoxifene 0.01 nM): 165
- CD40L expression (MFI) ([2]; CD8+ cells, Day 4, Bazedoxifene 0.1 nM): 171
- CD40L expression (MFI) ([2]; CD8+ cells, Day 4, Bazedoxifene 1 nM): 172
- CD40L expression (MFI) ([2]; CD8+ cells, Day 4, Bazedoxifene 10 nM): 176
- CD40L expression (MFI) ([2]; CD8+ cells, Day 4, Bazedoxifene 100 nM): 313
- CD40L expression (MFI) ([2]; CD8+ cells, Day 4, Bazedoxifene 1000 nM): 601
- CD40L expression (MFI) ([2]; CD8+ cells, Day 4, Bazedoxifene 10000 nM): 404
- CD40L expression (MFI) ([2]; CD8+ cells, Post Thaw, Bazedoxifene 0.01 nM): 103
- CD40L expression (MFI) ([2]; CD8+ cells, Post Thaw, Bazedoxifene 0.1 nM): 105
- CD40L expression (MFI) ([2]; CD8+ cells, Post Thaw, Bazedoxifene 1 nM): 107
- CD40L expression (MFI) ([2]; CD8+ cells, Post Thaw, Bazedoxifene 10 nM): 117
- CD40L expression (MFI) ([2]; CD8+ cells, Post Thaw, Bazedoxifene 100 nM): 170
- CD40L expression (MFI) ([2]; CD8+ cells, Post Thaw, Bazedoxifene 1000 nM): 213
- CD40L expression (MFI) ([2]; CD8+ cells, Post Thaw, Bazedoxifene 10000 nM): 326
- CD40L expression (MFI) ([2]; CD8+ cells, Restim, Bazedoxifene 0.01 nM): 238
- CD40L expression (MFI) ([2]; CD8+ cells, Restim, Bazedoxifene 0.1 nM): 244
- CD40L expression (MFI) ([2]; CD8+ cells, Restim, Bazedoxifene 1 nM): 263
- CD40L expression (MFI) ([2]; CD8+ cells, Restim, Bazedoxifene 10 nM): 253
- CD40L expression (MFI) ([2]; CD8+ cells, Restim, Bazedoxifene 100 nM): 354
- CD40L expression (MFI) ([2]; CD8+ cells, Restim, Bazedoxifene 1000 nM): 567
- CD40L expression (MFI) ([2]; CD8+ cells, Restim, Bazedoxifene 10000 nM): 458

B3: OT-001662: CD40L construct with ecDHFR (M1del, R12Y, Y100I) DRD, ligand TMP (protein)
chain: MSGISLIAALAVDYVIGMENAMPWNLPADLAWFKRNTLNKPVIMGRHTWESIGRPLPGRKNIILSSQPGTDDRVTWVKSVDEAIAACGDVPEIMVIGGGRVIEQFLPKAQKLYLTHIDAEVEGDTHFPDYEPDDWESVFSEFHDADAQNSHSYCFEILERRHMIETYNQTSPRSAATGLPISMKIFMYLLTVFLITQMIGSALFAVYLHRRLDKIEDERNLHEDFVFMKTIQRCNTGERSLSLLNCEEIKSQFEGFVKDIMLNKEETKKENSFEMQKGDQNPQIAAHVISEASSKTTSVLQWAEKGYYTMSNNLVTLENGKQLTVKRQGLYYIYAQVTFCSNREASSQAPFIASLCLKSPGRFERILLRAANTHSSAKPCGQQSIHLGGVFELQPGASVFVNVTDPSQVSHGTGFTSFGLLKL
- % CD40L expression (Jurkat cells [3]; TMP (50 μM)): 90%
- SR (Jurkat cells [3]; TMP (50 μM) versus Vehicle): 90
- % CD40L expression (Jurkat cells [3]; Vehicle (DMSO)): 1%
